Laboratory results from publication doi:10.1101/478511 (bioRxiv, 2018).

Biological target: WT His-BRCA1(1-500)-BARD1(27-327) heterodimer (UniProt P38398 1-500; Q99728 27-327)
Assay: pull-down

WT His-BRCA1(1-500)-BARD1(27-327) heterodimer, sequence (P38398 1-500, chain 1 of 2): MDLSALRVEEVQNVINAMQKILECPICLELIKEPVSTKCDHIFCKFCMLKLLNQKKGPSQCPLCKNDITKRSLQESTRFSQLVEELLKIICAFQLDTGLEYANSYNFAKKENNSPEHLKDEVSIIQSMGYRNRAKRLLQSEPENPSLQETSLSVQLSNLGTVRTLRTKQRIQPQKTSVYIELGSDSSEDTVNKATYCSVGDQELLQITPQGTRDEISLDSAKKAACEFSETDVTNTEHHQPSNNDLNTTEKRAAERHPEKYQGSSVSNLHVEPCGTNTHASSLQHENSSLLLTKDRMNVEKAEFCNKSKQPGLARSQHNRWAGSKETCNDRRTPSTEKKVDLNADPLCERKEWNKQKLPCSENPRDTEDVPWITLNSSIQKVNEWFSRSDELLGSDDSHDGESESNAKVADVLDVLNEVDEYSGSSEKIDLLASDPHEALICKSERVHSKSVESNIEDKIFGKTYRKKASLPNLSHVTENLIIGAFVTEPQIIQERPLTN
WT His-BRCA1(1-500)-BARD1(27-327) heterodimer, sequence (Q99728 27-327, chain 2 of 2): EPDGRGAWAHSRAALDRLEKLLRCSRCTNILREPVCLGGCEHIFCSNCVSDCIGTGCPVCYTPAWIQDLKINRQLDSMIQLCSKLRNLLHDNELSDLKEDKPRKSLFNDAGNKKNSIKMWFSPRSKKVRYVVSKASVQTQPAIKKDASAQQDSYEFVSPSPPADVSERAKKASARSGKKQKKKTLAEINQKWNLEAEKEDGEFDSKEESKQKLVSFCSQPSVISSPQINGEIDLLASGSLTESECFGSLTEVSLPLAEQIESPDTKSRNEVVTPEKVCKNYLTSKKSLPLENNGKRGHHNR

binding result: binds
B1: Human recombinant RAD51 (Abcam) (natural protein)
chain: MAMQMQLEANADTSVEEESFGPQPISRLEQCGINANDVKKLEEAGFHTVEAVAYAPKKELINIKGISEAKADKILAEAAKLVPMGFTTATEFHQRRSEIIQITTGSKELDKLLQGGIETGSITEMFGEFRTGKTQICHTLAVTCQLPIDRGGGEGKAMYIDTEGTFRPERLLAVAERYGLSGSDVLDNVAYARAFNTDHQTQLLYQASAMMVESRYALLIVDSATALYRTDYSGRGELSARQMHLARFLRMLLRLADEFGVAVVITNQVVAQVDGAAMFAADPKKPIGGNIIAHASTTRLYLRKGRGETRICKIYDSPCLPEAEAMFAINADGVGDAKD
